Measurements taken from the supplement of paper PMC12042874.
± gives the uncertainty stated by the source.

Experiment: amyloid nucleation score (Sup35N fusion, yeast selection) (log enrichment); library NNK1; higher = more nucleation; inactive = no reads after selection
Method in brief: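 Random libraries were run with three technical output replicates. In each, psi-negative yeast expressing Sup35N fused to peptides of 20 random codons were induced 24 hours with 100 μM copper sulfate and grown 7 days at 30°C on medium lacking adenine and uracil, and input and output plasmid inserts were Illumina-sequenced. The nucleation score is the DiMSum log enrichment of output over input reads, centred on the mode score of non-aggregating sequences, and sequences under 100 input reads were excluded.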

Substance	amyloid nucleation score
YGRRGNFPSRWTSQHADIKF	-0.308 ± 0.57
YGSKICSIAFCPLLHVQNHP	6.567 ± 0.055
YGTVTGEIIYFLSYLVIMRM	-0.848 ± 0.56
YGVEMLPHISNAVTLFFGN	8.133 ± 0.057
YHKRVNFSVRAGCCC	1.29 ± 0.43
YHSSKGCIVCCR	-0.391 ± 0.24
YHTTFSNVPFKGHARNAQRG	0.172 ± 0.66
YIAMYGARTPSCVVKPG	-0.832 ± 0.55
YIDRRLRLRVG	inactive
YIGFVGSGYLVVCVP	-2.02 ± 0.99
YIGVRCG	0.026 ± 0.51
YIIWVYCVRMNSLHELLAMS	0.684 ± 0.8
YINYHCFMIRFQFILVYRYQ	inactive
YIRGYTIFSNWCFGLASGSA	-0.525 ± 0.83
YIVVCSIRNLGRINLRGSDT	0.056 ± 0.8
YKDFVGRTEFYRVGMFRLTE	0.912 ± 0.43
YKEQGTPHLLYADYEARRDG	0.791 ± 0.66
YLGSWIKHRHAQWIARVRNR	0.508 ± 0.29
YLHWTQEDLRGNILGWSMWS	2.32 ± 0.16
YLINRRIYVPVYLLALVISL	-0.189 ± 0.4
YLISYRLTPSYASVNDCFPD	0.203 ± 0.46
YLKMFV	0.01 ± 0.32
YLNYWFR	-0.341 ± 0.28
YLQETLYNKWDWFGNHQGLM	0.107 ± 0.26
YLSHWQFAFIHLNANILL	0.596 ± 1.2

Substance	amyloid nucleation score
YLSIKVITQGDWKCQVRVLW	-0.332 ± 0.55
YLVILKITGGSDVPTDQMVW	-0.88 ± 0.32
YLWADTRCLTGVW	0.413 ± 1.1
YLWLVWEDV	0.721 ± 0.69
YLWMFCYMYREVAIRVNVGG	0.1 ± 0.34
YMEGAGRYWRGQRKLPPCIA	-0.414 ± 0.67
YMGPVV	-0.313 ± 0.33
YMSWASLRKHFIFVV	-0.282 ± 1.2
YMWFMNRSILIIAELFVVFT	-0.287 ± 0.48
YNGGCACMEAVMRFGGFFTL	-0.066 ± 0.28
YNKGIRRSDQGLKWTFLWPE	-0.712 ± 0.53
YNLGQVFSWINDTTSMMCGK	0.567 ± 0.32
YNMREVLSCKF	-0.114 ± 0.59
YNMVYQCLIRCVAILFNLGR	-0.321 ± 0.65
YNVQVLQVGGRLCRNKCSSC	7.825 ± 0.061
YNYICTDSWILSTMVDFVHL	-0.442 ± 0.92
YPDNMWYLCMLCRGWMCETR	-0.644 ± 0.62
YPGNSGSIY	-0.266 ± 0.91
YPLVFRIMDVVSPPPHWVLF	-0.219 ± 1.2
YPMRTQRVASHMV	-0.383 ± 0.58
YPNVRSTYGDHSLLSNVAKG	0.132 ± 0.66
YPSVLRINTTFASDLTG	0.894 ± 0.3
YPTSCVYMCQQAKPFLVLIL	-0.655 ± 0.6
YPYRV	-1.12 ± 1.2
YQNFPVKLITQKCLCWIDRC	0.216 ± 0.31

Substance	amyloid nucleation score
YRCAYFL	-0.25 ± 0.69
YRCGECNSSVMCMGLRCLWM	5.87 ± 0.059
YRDSGDRNLGIAPI	0.449 ± 0.97
YRFWEI	-0.25 ± 0.35
YRGIEAFCAGTNWTSPKWSR	-0.169 ± 0.3
YRGTLDNKMGFYIGYHHDRS	-0.322 ± 0.56
YRHPVMTWEPSRDLSFVLCL	0.388 ± 0.84
YRIHKIIKEPAEVTSLLRW	-0.813 ± 0.52
YRIKGVNWALPLCLALLSLR	0.068 ± 0.61
YRIPLARMWMVTLPL	-0.317 ± 0.8
YRMSRLFTVVGAPVGSSLNF	-1.58 ± 2.4
YRPIDFLIPYSSVML	inactive
YRPLVTPALSLTLNRFKVDV	0.187 ± 0.35
YRTVSDTVAY	1.42 ± 0.79
YRVVLAECTSGYWEDIYSHI	1.75 ± 0.16
YRVVYRKNVDCTMYQFMSRR	0.539 ± 0.31
YSARMLIRLSLLGFLPVSAP	0.711 ± 0.55
YSCFDRAPRFETSVESCDMS	0.093 ± 0.87
YSCGSIPYIRLVLKLIGYVI	-0.016 ± 0.39
YSCPNLIWA	-0.424 ± 0.38
YSGCRTPDTVSVVTSTHAEY	inactive
YSIFREW	-0.817 ± 0.53
YSINTCCQLVIIDPGSSYEM	6.634 ± 0.047
YSIYRINFPVIALHFTGHCV	-0.902 ± 0.9
YSKWSISTFECMWAKNWRGD	1.66 ± 0.39

Substance	amyloid nucleation score
YSLVDTTLVILS	0.226 ± 0.36
YSNWSCLYCSKSL	7.552 ± 0.053
YSRIARLDVKRVGHEPDVRL	-0.921 ± 2.4
YSVINWFMVAYYRADRLVNG	-0.144 ± 1.2
YSVWVYRLMRYELNVTFCR	0.093 ± 0.2
YSYFSPDFRRSQHQGGVCPA	0.329 ± 0.53
YSYSGVRMVVILNWHGKWWC	4.87 ± 0.096
YSYSVAV	0.38 ± 0.51
YTCSVGDVMINDSETSSKAG	0.053 ± 0.24
YTEETYKLCVWMSDRSIRLN	0.001 ± 0.85
YTFNVVCILTTEYWGNGWLY	2.91 ± 0.16
YTHDIRSVGGLQESGLGVWV	-0.094 ± 1.1
YTQSWQ	-0.309 ± 0.51
YVCKIYFHDFDRNMGILEDH	1.13 ± 0.85
YVDSSI	-0.08 ± 0.97
YVDVSSS	0.834 ± 0.61
YVFFCIHTVGTPLGNCSIDV	inactive
YVIHLPKCTKLWMWANCFLW	-0.215 ± 0.62
YVLIVNWIRSK	4.42 ± 0.075
YVRGSGMAPGD	inactive
YVRVRSIDVLQQKRSLFVRD	0.595 ± 0.97
YVTMYVRMPGRFTTTHMWLI	-0.962 ± 0.63
YVVFMYFAF	5.9 ± 0.068
YVWAAIGVRLYSRHK	-0.002 ± 1.4
YVWKMIHVYGMTLSDFTFKV	5.19 ± 0.053

Substance	amyloid nucleation score
YVYLYGGSSQFVWYGLFSFA	2.65 ± 0.14
YWAKGNCYVAFRLKWRYNCG	1.69 ± 0.64
YWCRSSLFRFMGLRYESRMY	0.359 ± 0.51
YWLGLNMCVFSHPGCGLREI	6.64 ± 0.047
YWNKITRFFCMLESNVTLHT	0.207 ± 1.4
YWSLYSPFYAIHSVILTICQ	0.496 ± 0.18
YWSQTRFYSMALSRSDSERT	0.135 ± 0.27
YWSVQG	0.647 ± 0.75
YWVCE	0.332 ± 0.9
YWWKMLERQTRS	0.374 ± 0.9
YYETLLNKDILDMWEYR	-0.393 ± 0.55
YYGFWICFNYVGTGVKISCA	3.38 ± 0.075
YYIMYYAGSFIRGEMVHRLT	-0.581 ± 0.32
YYKCMATQVVGLLMSVWATY	1.06 ± 0.85
YYLIFHFDYHLVIYLW	0.707 ± 0.41
YYLQLIYMHKNRMLISCVCC	inactive
YYNNC	0.501 ± 0.39
YYPNKLFEYSKWNHAAGRVR	0.085 ± 0.64
YYQRTPSTDRSLWFTGWNVN	-0.424 ± 0.19
YYTCSSETM	0.811 ± 0.39
YYVKISLGGSLNNLWKRDWW	3.54 ± 0.1
YYYHVVWAQ	inactive
